# Measurements: patent US9273095B2, “Antibiotic peptide and preparation method therefor and application therefor” (priority 2011, dated 2016)
# Experiments:
# [1] = RP-HPLC temperature profiling: hydrophobicity and self-association; type: physicochemical
# Protocol: Peptides are analyzed on an Agilent 1200 series liquid chromatograph (Little Falls, Del.). Runs are performed on a Zorbax 300 SB-C8 column (150×4.6 mm I.D.; 5 μm particle size, 300 Å pore size) from Agilent Technologies using linear AB gradient (1% acetonitrile/min) and a flow rate of 1 ml/min, where solvent A is 0.05% aqueous TFA, pH 2 and solvent B is 0.05% TFA in acetonitrile.
# We further use temperature profiling during RP-HPLC to determine the self-association ability of various analogs of PL-13 (SEQ ID NO: 1) which would occur through interaction of the non-polar faces of these amphipathic peptides α-helices. We use 50% TFE aqueous acetonitrile and hydrophobic conditions in the reversed-phase column (hydrophobic stationary phase and the hydrophobic organic solvent in the mobile phase) since the hydrophobic environment of a reversed-phase column also could induce α-helical structure. Since its introduction, the technique of RP-HPLC temperature profiling has been applied on several types of molecules, including cyclic β-sheet peptides, monomeric α-helices and α-helices that dimerize, as well as α-helices that dimerize to form coiled-coils. Although peptides are eluted from a reversed-phase column mainly by an adsorption/desorption mechanism, even a peptide strongly bound to a hydrophobic stationary phase will partition between the matrix and the mobile phase when the acetonitrile content becomes high enough during gradient elution. In summary, the mechanism is based on four assumptions: (i) at low temperature, just as an amphipathic α-helical peptide is able to dimerize in aqueous solution (through its hydrophobic, non-polar face), it will dimerize in solution during partitioning in reversed-phase chromatography; (ii) at higher temperatures, the monomer-dimer equilibrium favors the monomer as the dimer is disrupted; (iii) at sufficiently high temperatures, only monomer is present in solution; and (iv) peptide is always bound in its monomeric helical form to the hydrophobic stationary phase, i.e., the dimer can only be present in solution and disruption of the dimer is required for rebinding to the RP-HPLC matrix.
# ([θ]222=−3,950). Since peptide C is a monomeric random coil peptide in both aqueous and hydrophobic media, its retention behavior over the temperature range 5-80° C. represents only general temperature effects on peptide retention behavior, i.e., a linear decrease in peptide retention time with increasing temperature due to greater solute diffusivity and enhanced mass transfer between the stationary and mobile phases at higher temperatures. Thus, after normalization to the retention times of peptide C, the retention behavior of the peptides only represents peptide self-association ability. Note that the higher the PA value, the greater the self-association ability. The order of peptide self-association ability of the three pairs of peptide enantiomers is identical to the order of peptide hydrophobicity. Apart from the decrease in retention time due to the general temperature effects noted above, destruction of the α-helix will also occur with increasing temperature, resulting in reduced retention times as the peptides become increasingly random coils.
# The retention time data for the peptides is shown in Table 6 which records retention times at 5° C., the maximal retention times and retention times at 80° C. during the temperature profiling. Temperatures of 5-80° C. are the lower and upper temperature limits of temperature profiling in RP-HPLC, representing polymerization of the peptides at 5° C. and the monomerization of peptides at 80° C. due to denaturation of peptides by high temperature and dissociation of the polymers. The maximal retention times represent the threshold points at which peptides totally transform from polymeric to monomeric form. […]
# [2] = Circular dichroism (CD) spectroscopy, helical structure; type: physicochemical; details: 50% trifluoroethanol (TFE), 5° C.
substance,measurement,setting,value
Ac-ELEKGGLEGEKGGKELEK-amide (Ac-ELEKGGLEGEKGGKELEK-NH2) [reference compound],tR(min) 5° C.,"[1]; RP-HPLC temperature profiling, 5° C.",22.56 min
same,tR(min) 80° C.,"[1]; RP-HPLC temperature profiling, 80° C.",19.91 min
same,tR(min) Max,[1]; maximal retention time during temperature profiling 5-80° C.,22.56 min
same,[θ]222,[2],"−3,950"
